The results in this text go back to patent US20260001928A1 (CORTERIA PHARMACEUTICALS, priority 2022, published 2026).

*1 amine or outer side, *2 acyl side, *3 side chain or, on linkers, in order; H or OH if unused. Where no end group is shown, it is not given here. Side-chain parts run from the residue outwards. [ ]: non-standard residue; d: D form. The star is where a group is joined. C20 diacid = O=C(O)CCCCCCCCCCCCCCCCCCC(=O)*; C16 diacid = O=C(O)CCCCCCCCCCCCCCC(=O)*; γGlu = O=C(O)[C@H](CCC(=O)[*:2])N[*:1]; NMeI = CC[C@H](C)[C@H](NC)C(=O)O; AEEA = NCCOCCOCC(=O)O; Aib = CC(C)(N)C(=O)O

This assay addresses human corticotropin-releasing factor 2a (CRF2a receptor) (human), Q13324. As to the kind of experiment: cell-based or functional assay.

human corticotropin-releasing factor 2a (CRF2a receptor) (human), Q13324, sequence (Q13324 20-411): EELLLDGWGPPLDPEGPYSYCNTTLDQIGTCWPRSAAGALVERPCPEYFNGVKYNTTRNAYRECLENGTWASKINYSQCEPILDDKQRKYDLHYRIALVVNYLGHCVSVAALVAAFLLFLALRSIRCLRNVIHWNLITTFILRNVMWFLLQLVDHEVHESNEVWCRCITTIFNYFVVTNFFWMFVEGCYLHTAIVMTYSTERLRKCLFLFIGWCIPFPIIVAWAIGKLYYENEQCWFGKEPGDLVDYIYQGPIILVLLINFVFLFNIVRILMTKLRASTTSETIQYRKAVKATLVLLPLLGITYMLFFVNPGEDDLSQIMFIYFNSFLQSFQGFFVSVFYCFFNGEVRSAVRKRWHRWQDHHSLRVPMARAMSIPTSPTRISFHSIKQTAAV

B1: SEQ ID NO 14 (peptide)
peptide: H-IVLSLD[dV]PIKLK([γGlu-C16 diacid])QILLKQERQKKQREQAEKNTQILEQV-NH2
SMILES: CC[C@H](C)[C@H](N)C(=O)N[C@H](C(=O)N[C@@H](CC(C)C)C(=O)N[C@@H](CO)C(=O)N[C@@H](CC(C)C)C(=O)N[C@@H](CC(=O)O)C(=O)N[C@@H](C(=O)N1CCC[C@H]1C(=O)N[C@H](C(=O)N[C@@H](CCCCN)C(=O)N[C@@H](CC(C)C)C(=O)N[C@@H](CCCCNC(=O)CC[C@H](NC(=O)CCCCCCCCCCCCCCC(=O)O)C(=O)O)C(=O)N[C@@H](CCC(N)=O)C(=O)N[C@H](C(=O)N[C@@H](CC(C)C)C(=O)N[C@@H](CC(C)C)C(=O)N[C@@H](CCCCN)C(=O)N[C@@H](CCC(N)=O)C(=O)N[C@@H](CCC(=O)O)C(=O)N[C@@H](CCCNC(=N)N)C(=O)N[C@@H](CCC(N)=O)C(=O)N[C@@H](CCCCN)C(=O)N[C@@H](CCCCN)C(=O)N[C@@H](CCC(N)=O)C(=O)N[C@@H](CCCNC(=N)N)C(=O)N[C@@H](CCC(=O)O)C(=O)N[C@@H](CCC(N)=O)C(=O)N[C@@H](C)C(=O)N[C@@H](CCC(=O)O)C(=O)N[C@@H](CCCCN)C(=O)N[C@@H](CC(N)=O)C(=O)N[C@H](C(=O)N[C@@H](CCC(N)=O)C(=O)N[C@H](C(=O)N[C@@H](CC(C)C)C(=O)N[C@@H](CCC(=O)O)C(=O)N[C@@H](CCC(N)=O)C(=O)N[C@H](C(N)=O)C(C)C)[C@@H](C)CC)[C@@H](C)O)[C@@H](C)CC)[C@@H](C)CC)C(C)C)C(C)C
With B1, the EC50 [nM] (cAMP) turned out to be 0.26 nM.

B2: SEQ ID NO 232 (peptide)
peptide: Ac-IVLSLD[dV]PIKLK([AEEA-γGlu-C20 diacid])KILLEQEKQKAQREQAETN[Aib]QILAQV-NH2
SMILES: CC[C@H](C)[C@H](NC(C)=O)C(=O)N[C@H](C(=O)N[C@@H](CC(C)C)C(=O)N[C@@H](CO)C(=O)N[C@@H](CC(C)C)C(=O)N[C@@H](CC(=O)O)C(=O)N[C@@H](C(=O)N1CCC[C@H]1C(=O)N[C@H](C(=O)N[C@@H](CCCCN)C(=O)N[C@@H](CC(C)C)C(=O)N[C@@H](CCCCNC(=O)COCCOCCNC(=O)CC[C@H](NC(=O)CCCCCCCCCCCCCCCCCCC(=O)O)C(=O)O)C(=O)N[C@@H](CCCCN)C(=O)N[C@H](C(=O)N[C@@H](CC(C)C)C(=O)N[C@@H](CC(C)C)C(=O)N[C@@H](CCC(=O)O)C(=O)N[C@@H](CCC(N)=O)C(=O)N[C@@H](CCC(=O)O)C(=O)N[C@@H](CCCCN)C(=O)N[C@@H](CCC(N)=O)C(=O)N[C@@H](CCCCN)C(=O)N[C@@H](C)C(=O)N[C@@H](CCC(N)=O)C(=O)N[C@@H](CCCNC(=N)N)C(=O)N[C@@H](CCC(=O)O)C(=O)N[C@@H](CCC(N)=O)C(=O)N[C@@H](C)C(=O)N[C@@H](CCC(=O)O)C(=O)N[C@H](C(=O)N[C@@H](CC(N)=O)C(=O)NC(C)(C)C(=O)N[C@@H](CCC(N)=O)C(=O)N[C@H](C(=O)N[C@@H](CC(C)C)C(=O)N[C@@H](C)C(=O)N[C@@H](CCC(N)=O)C(=O)N[C@H](C(N)=O)C(C)C)[C@@H](C)CC)[C@@H](C)O)[C@@H](C)CC)[C@@H](C)CC)C(C)C)C(C)C
Molecule B2 displayed an EC50 [nM] (cAMP) of 0.12 nM.

B3: SEQ ID NO 233 (peptide)
peptide: [NMeI]VLSLD[dV]PIKLK([AEEA-γGlu-C20 diacid])KILLEQEKQKEQREQAETN[Aib]QILAQV-NH2
modifications: N-terminus assumed
SMILES: CC[C@H](C)[C@H](NC)C(=O)N[C@H](C(=O)N[C@@H](CC(C)C)C(=O)N[C@@H](CO)C(=O)N[C@@H](CC(C)C)C(=O)N[C@@H](CC(=O)O)C(=O)N[C@@H](C(=O)N1CCC[C@H]1C(=O)N[C@H](C(=O)N[C@@H](CCCCN)C(=O)N[C@@H](CC(C)C)C(=O)N[C@@H](CCCCNC(=O)COCCOCCNC(=O)CC[C@H](NC(=O)CCCCCCCCCCCCCCCCCCC(=O)O)C(=O)O)C(=O)N[C@@H](CCCCN)C(=O)N[C@H](C(=O)N[C@@H](CC(C)C)C(=O)N[C@@H](CC(C)C)C(=O)N[C@@H](CCC(=O)O)C(=O)N[C@@H](CCC(N)=O)C(=O)N[C@@H](CCC(=O)O)C(=O)N[C@@H](CCCCN)C(=O)N[C@@H](CCC(N)=O)C(=O)N[C@@H](CCCCN)C(=O)N[C@@H](CCC(=O)O)C(=O)N[C@@H](CCC(N)=O)C(=O)N[C@@H](CCCNC(=N)N)C(=O)N[C@@H](CCC(=O)O)C(=O)N[C@@H](CCC(N)=O)C(=O)N[C@@H](C)C(=O)N[C@@H](CCC(=O)O)C(=O)N[C@H](C(=O)N[C@@H](CC(N)=O)C(=O)NC(C)(C)C(=O)N[C@@H](CCC(N)=O)C(=O)N[C@H](C(=O)N[C@@H](CC(C)C)C(=O)N[C@@H](C)C(=O)N[C@@H](CCC(N)=O)C(=O)N[C@H](C(N)=O)C(C)C)[C@@H](C)CC)[C@@H](C)O)[C@@H](C)CC)[C@@H](C)CC)C(C)C)C(C)C
The molecule B3 gave an EC50 [nM] (cAMP) of 0.12 nM.

B4: SEQ ID NO 231 (peptide)
peptide: Ac-IVLSLD[dV]PIKLK([AEEA-γGlu-C20 diacid])KILLEQEKQKEQREQAETN[Aib]QILAQV-NH2
SMILES: CC[C@H](C)[C@H](NC(C)=O)C(=O)N[C@H](C(=O)N[C@@H](CC(C)C)C(=O)N[C@@H](CO)C(=O)N[C@@H](CC(C)C)C(=O)N[C@@H](CC(=O)O)C(=O)N[C@@H](C(=O)N1CCC[C@H]1C(=O)N[C@H](C(=O)N[C@@H](CCCCN)C(=O)N[C@@H](CC(C)C)C(=O)N[C@@H](CCCCNC(=O)COCCOCCNC(=O)CC[C@H](NC(=O)CCCCCCCCCCCCCCCCCCC(=O)O)C(=O)O)C(=O)N[C@@H](CCCCN)C(=O)N[C@H](C(=O)N[C@@H](CC(C)C)C(=O)N[C@@H](CC(C)C)C(=O)N[C@@H](CCC(=O)O)C(=O)N[C@@H](CCC(N)=O)C(=O)N[C@@H](CCC(=O)O)C(=O)N[C@@H](CCCCN)C(=O)N[C@@H](CCC(N)=O)C(=O)N[C@@H](CCCCN)C(=O)N[C@@H](CCC(=O)O)C(=O)N[C@@H](CCC(N)=O)C(=O)N[C@@H](CCCNC(=N)N)C(=O)N[C@@H](CCC(=O)O)C(=O)N[C@@H](CCC(N)=O)C(=O)N[C@@H](C)C(=O)N[C@@H](CCC(=O)O)C(=O)N[C@H](C(=O)N[C@@H](CC(N)=O)C(=O)NC(C)(C)C(=O)N[C@@H](CCC(N)=O)C(=O)N[C@H](C(=O)N[C@@H](CC(C)C)C(=O)N[C@@H](C)C(=O)N[C@@H](CCC(N)=O)C(=O)N[C@H](C(N)=O)C(C)C)[C@@H](C)CC)[C@@H](C)O)[C@@H](C)CC)[C@@H](C)CC)C(C)C)C(C)C
With B4, the EC50 [nM] (cAMP) stood at 0.28 nM.
